This note sets out measurements from US20260049115A1 (UNIVERSITY OF CHICAGO, published 2026).

As a reminder, the koff is the first-order rate constant of dissociation. High values mean a short-lived complex, low ones a long-lived complex. Usually kon stands for the second-order rate constant of association.

One assay concerns the target T1, recombinant mouse IL-2Rα (mouse, UniProt P01590 22-236, limits assumed).
T1 construct: Bought recombinant protein; also called rm IL-2Rα
T1 sequence (looked up): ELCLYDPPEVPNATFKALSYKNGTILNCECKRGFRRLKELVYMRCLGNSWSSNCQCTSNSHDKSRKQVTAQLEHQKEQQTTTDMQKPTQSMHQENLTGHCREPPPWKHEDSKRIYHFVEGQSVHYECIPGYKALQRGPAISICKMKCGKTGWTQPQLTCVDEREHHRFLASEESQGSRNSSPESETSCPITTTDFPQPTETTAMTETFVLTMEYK
In words: ELISA on plates coated with recombinant mouse IL-2Rα; apparent KD by nonlinear regression, one-site specific binding [panel C]. The procedure:
(§1) Detection of CBD-IL-2 binding to collagen proteins. The measurement is performed as described previously (Ishihara et al., Sci Transl Med 9:doi:10.1126/scitranslmed.aan0401, 2017). 96-well ELISA plates (Greiner Bio One) were coated with 10 μg/mL collagen I (EMD Millipore), collagen III (EMD Millipore), or 1 μg/mL recombinant mouse IL-2Rα (SinoBiological) in PBS for 1 h at 37° C., followed by blocking with 2% BSA in PBS with 0.05% Tween 20 (PBS-T) for 1 hr at RT. Then, wells were washed with PBS-T and further incubated with 10 μg/mL CBD- or unmodified-IL-2 for 1 hr at RT. After 3 washes with PBS-T, wells were incubated for 1 hr at RT with HRP-conjugated antibody against rat IgG (Jackson ImmunoResearch). After washes, bound CBD-IL2 and IL-2 were detected with tetramethylbenzidine substrate by measurement of the absorbance at 450 nm with subtraction of 570 nm. The apparent dissociation constant (KD) values were obtained by nonlinear regression analysis in Prism software (v7, GraphPad Software) assuming one-site specific binding.
On the technique in general: In an ELISA, binding on a coated surface is turned into a signal by an enzyme label.

Assay [1] addresses CCR5 on ThP1 human monocytes (human, UniProt P51681 1-352). In words: cell-based or functional assay.
For assay [2], the target named is T2, collagen type I.
T2 construct: Bought protein; also called collagen I; type I collagen
The experiment in a line: SPR (Biacore X100), collagen I on CM5 chip, 1:1 Langmuir fit. The protocol:
(§2) FIGS. 6A-6D. CBD-CCL4 fusion protein binds to collagen I and collagen III and maintains its activity. (A) WT CCL4 and CBD-CCL4 were analyzed by SDS-PAGE followed by Coomassie blue staining. (B,C) Affinity of CBD-CCL4 against (B) collagen I and (C) collagen III was measured by SPR. SPR chips were functionalized with collagen I (˜500 RU) and collagen III (˜700 RU), and the CBD-CCL4 was flowed over the chips at indicated concentrations. Curves represent the obtained specific responses (in resonance units (RU)) to CBD-CCL4. Experimental curves were fitted with 1:1 Langmuir fit model. Binding kinetics values [dissociation constants (KD) and rate constants (kₒₙ and koff)] determined from the fitted curves are shown. (D) GPCR activation assay comparing signaling of WT CCL4 and CBD-CCL4 in ThP1 monocytes. EC₅₀ values were calculated using a non-linear dose-response curve fit model. Each point represents mean±SEM, n=3.
(§3) CBD-CCL4 collagen binding measurements using SPR. SPR measurements were made with a Biacore X100 SPR system™ (GE Healthcare). Collagen I or collagen III was immobilized via amine coupling on a CM5 chip (GE Healthcare) for ˜1000 resonance units (RU) according to the manufacturer's instructions. […] Specific binding of CBD-CCL4 to collagen was calculated automatically using the response to a non-functionalized channel as a reference. […]

Assay [3] deals with T2, collagen type I. In words: SPR, collagen I immobilised on the chip, CBD-CCL4 flowed at 15.6 to 500 nM, 1:1 Langmuir fit [panel B]. The procedure: as §2, §3
A general note: Surface plasmon resonance follows binding to a sensor surface in real time, without labels.

Assay [4] has as its target T3, collagen type III.
T3 construct: Bought protein; also called collagen III; type III collagen
In words: SPR, collagen III immobilised on the chip, CBD-CCL4 flowed at 15.6 to 500 nM, 1:1 Langmuir fit [panel C]. The protocol:
as §2, §3

In assay [5] the target is T3, collagen type III. In words: SPR (Biacore X100), collagen III on CM5 chip, 1:1 Langmuir fit. The procedure:
as §2, §3

The target of assay [6] is T3, collagen type III. In words: ELISA on plates coated with collagen III; apparent KD by nonlinear regression, one-site specific binding [panel C]. The protocol:
as §1

The target in assay [7] is T2, collagen type I. In words: ELISA on plates coated with collagen I; apparent KD by nonlinear regression, one-site specific binding [panel C]. The procedure: as §1

T3 sequence (P02461 154-1221): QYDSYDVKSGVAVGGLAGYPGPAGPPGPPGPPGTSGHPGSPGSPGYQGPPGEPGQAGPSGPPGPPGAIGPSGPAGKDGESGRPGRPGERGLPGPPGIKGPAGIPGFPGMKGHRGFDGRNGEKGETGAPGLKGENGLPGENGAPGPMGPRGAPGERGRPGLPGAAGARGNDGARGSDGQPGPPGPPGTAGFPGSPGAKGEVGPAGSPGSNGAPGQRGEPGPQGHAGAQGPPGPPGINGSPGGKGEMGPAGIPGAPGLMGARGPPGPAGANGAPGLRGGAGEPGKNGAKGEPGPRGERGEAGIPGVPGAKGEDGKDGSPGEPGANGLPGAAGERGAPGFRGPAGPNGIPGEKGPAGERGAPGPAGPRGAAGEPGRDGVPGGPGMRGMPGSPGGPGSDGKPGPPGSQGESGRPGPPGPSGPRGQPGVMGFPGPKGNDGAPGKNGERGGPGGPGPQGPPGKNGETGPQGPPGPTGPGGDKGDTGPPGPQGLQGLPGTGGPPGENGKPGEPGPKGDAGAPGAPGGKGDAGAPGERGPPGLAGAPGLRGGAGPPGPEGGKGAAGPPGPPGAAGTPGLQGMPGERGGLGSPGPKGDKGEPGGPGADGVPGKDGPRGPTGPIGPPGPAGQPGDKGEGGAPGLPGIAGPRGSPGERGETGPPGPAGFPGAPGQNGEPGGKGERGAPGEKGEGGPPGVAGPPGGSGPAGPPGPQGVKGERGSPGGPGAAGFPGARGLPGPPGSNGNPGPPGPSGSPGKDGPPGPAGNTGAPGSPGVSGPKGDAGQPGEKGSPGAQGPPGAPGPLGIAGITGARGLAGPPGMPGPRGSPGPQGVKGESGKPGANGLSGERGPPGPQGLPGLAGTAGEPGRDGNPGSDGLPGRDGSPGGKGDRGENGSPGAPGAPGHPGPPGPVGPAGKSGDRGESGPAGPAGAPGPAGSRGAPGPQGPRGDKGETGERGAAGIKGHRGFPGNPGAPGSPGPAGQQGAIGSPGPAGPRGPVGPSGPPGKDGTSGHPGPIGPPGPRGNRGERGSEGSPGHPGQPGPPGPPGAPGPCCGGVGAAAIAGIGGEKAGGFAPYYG
CCR5 on ThP1 human monocytes, sequence (P51681 whole entry): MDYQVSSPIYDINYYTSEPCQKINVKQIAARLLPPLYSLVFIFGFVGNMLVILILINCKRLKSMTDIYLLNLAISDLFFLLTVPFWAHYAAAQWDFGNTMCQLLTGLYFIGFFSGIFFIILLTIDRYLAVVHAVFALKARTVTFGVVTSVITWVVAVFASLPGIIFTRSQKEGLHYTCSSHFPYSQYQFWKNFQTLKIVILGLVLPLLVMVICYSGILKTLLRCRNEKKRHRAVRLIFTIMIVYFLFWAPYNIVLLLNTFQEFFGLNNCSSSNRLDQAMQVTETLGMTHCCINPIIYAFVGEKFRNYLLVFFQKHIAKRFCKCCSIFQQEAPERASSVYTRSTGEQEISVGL

B1: wild-type mouse IL-2 (His-tagged) (ligand)
chain: PTSSSTSSSTAEAQQQQQQQQQQQQHLEQLLMDLQELLSRMENYRNLKLPRMLTFKFYLPKQATELKDLQCLEDELGPLRHVLDLTQSKSFQLEDAENFISNIRVTVVKLKGSDNTFECQFDDESATVVDFLRRWIAFCQSIISTSPQ
notes: The entry includes the C-terminal 6xHis tag as printed; also called wild-type IL-2; unmodified-IL-2
Consider B1, for which the Kd with recombinant mouse IL-2Rα turned out to be 60 nM.

B2: CBD-CCL4 (human vWF A3 domain and murine CCL4 fusion protein) (other)
chain: CSQPLDVILLLDGSSSFPASYFDEMKSFAKAFISKANIGPRLTQVSVLQYGSITTIDVPWNVVPEKAHLLSLVDVMQREGGPSQIGDALGFAVRYLTSEMHGARPGASKAVVILVTDVSVDSVDAAADAARSNRVTVFPIGIGDRYDAAQLRILAGPAGDSNVVKLQRIEDLPTMVTLGNSFLHKLCSGFVRIGGGGSGGGGSAPMGSDPPTSCCFSYTSRQLHRSFVMDYYETSSLCSKPAVVFLTKRGRQICANPSEPWVTEYMSDLELNHHHHHH
notes: also called CBD-CCL4 fusion protein; vWF A3 domain-CCL4 fusion protein
With B2, the “EC50, calcium flux (RFU) in ThP1 monocytes [panel D]” value in assay [1] was 7 nM. Further, the Kd in the assay with collagen type I [2] turned out to be 33.4 nM; with collagen type III [5], 14.5 nM. In addition, the values for the koff with collagen type I [3] and with collagen type III [4] were 0.0031 s⁻¹ and 0.0078 s⁻¹, respectively. The values for the kon in the assay with collagen type I [3] and with collagen type III [4] were 95000 M⁻¹ s⁻¹ and 540000 M⁻¹ s⁻¹, respectively.

B3: CBD-fused IL-2 recombinant protein (the vWF A3 domain and mouse IL-2 fusion protein) (other)
chain: CSQPLDVILLLDGSSSFPASYFDEMKSFAKAFISKANIGPRLTQVSVLQYGSITTIDVPWNVVPEKAHLLSLVDVMQREGGPSQIGDALGFAVRYLTSEMHGARPGASKAVVILVTDVSVDSVDAAADAARSNRVTVFPIGIGDRYDAAQLRILAGPAGDSNVVKLQRIEDLPTMVTLGNSFLHKLCSGFVRIGGGSGGGSPTSSSTSSSTAEAQQQQQQQQQQQQHLEQLLMDLQELLSRMENYRNLKLPRMLTFKFYLPKQATELKDLQCLEDELGPLRHVLDLTQSKSFQLEDAENFISNIRVTVVKLKGSDNTFECQFDDESATVVDFLRRWIAFCQSIISTSPQ
notes: also called CBD-IL-2
As for B3, the figures for the Kd with collagen type III [6], with recombinant mouse IL-2Rα and with collagen type I [7] were 181 nM, 54.7 nM and 268 nM, respectively.
